# Target: T1, TGR-1-expressing CHO cells (Homo sapiens, UniProt Q9GZQ4, A395T)
# T1 construct: expressed in transfected cells; host or cells: CHO cells
# Test: Site sensor assay of extracellular acidification rate in TGR-1-expressing CHO cells versus mock CHO cells
# Type: cell-based
# Settings: exposed to the cells for 7 minutes and 2 seconds; step-wise decreased concentrations; compared with mock CHO cells; 3 cycles before exposure set as 100%
# Description: In the site sensor assay, pig Neuromedin U-8 at the concentrations indicated in FIG. 1 was reacted to TGR-1-expressing CHO cells (●) and mock CHO cells (◯) for 7 minutes and 2 seconds. The maximum of acidification rate during the reaction was plotted.
# [10] TGR-1-expressing cells changes extracellular pH (acidification rate) in response to Neuromedin U. By measuring such change with a site sensor device (Molecular Device), the activity of Neuromedin U can be measured. The details of screening method for the compound that alters the binding between Neuromedin U and TGR-1 by measuring the extracellular pH change with the site sensor device are as follows.
# TGR-1-expressing cells are cultivated in a capsule of the site sensor over night. […] After the pH becomes stable, measured is the pH change of the medium caused by refluxing the medium containing Neuromedin U or Neuromedin U and a test compound on the cells. An influence of the compound that alter the binding of Neuromedin U and TGR-1 can be measured by comparing the change of extracellular pH in TGR-1-expressing cells with that by the single administration of Neuromedin U. The compound that inhibits the change of extracellular pH by administrating Neuromedin U can be selected as a candidate substance that is capable of altering the binding property between Neuromedin U and TGR-1. […]
# T1 sequence (Q9GZQ4 whole entry A395T): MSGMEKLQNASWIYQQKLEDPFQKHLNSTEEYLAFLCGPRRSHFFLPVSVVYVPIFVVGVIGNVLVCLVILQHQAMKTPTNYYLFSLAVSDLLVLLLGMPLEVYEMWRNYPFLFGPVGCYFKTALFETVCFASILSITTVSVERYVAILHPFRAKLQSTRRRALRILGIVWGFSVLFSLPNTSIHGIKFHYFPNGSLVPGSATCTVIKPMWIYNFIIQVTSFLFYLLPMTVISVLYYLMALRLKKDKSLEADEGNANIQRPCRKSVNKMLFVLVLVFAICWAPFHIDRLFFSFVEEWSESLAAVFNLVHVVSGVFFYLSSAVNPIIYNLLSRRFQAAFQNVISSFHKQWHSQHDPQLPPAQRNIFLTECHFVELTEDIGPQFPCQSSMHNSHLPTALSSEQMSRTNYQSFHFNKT
substance,measurement,value
"Pig Neuromedin U-8: Pig Neuromedin U-8 peptide of 8 amino acid residues (BACHEM, H-5505, SEQ ID NO:5), ligand of TGR-1","TGR-1 receptor-specific cell-stimulating activity (peak acidification rate, rate of change in extracellular pH)",reacted to Neuromedin U in a specific and does-dependent manner
